By stoichiometry N is commonly meant the number of molecules, sites or subunits per partner or assembly.

“And” between values parts separate entries of the source, which are not always exact repeats. Equal entries are not always repeated.

Assay [1] deals with Aggregation Suppressing Protein A (AgsA) wild type, tagless (Salmonella enterica serovar typhimurium LT2). Put plainly: SEC-MALS; separated 18-mer fraction of the wild type after size exclusion chromatography; Superdex 200 10/300, 20 mM Tris, 50 mM NaCl, pH 7.5. In general terms: SEC sorts molecules by how far they enter the pores of the column.
Assay [2] has the same target. Put plainly: SEC-MALS; unseparated wild type protein; Superose 6 10/300, 20 mM Tris, 200 mM NaCl, pH 8.0; about 100 uL of 2 mg/mL injected.
For assay [3] the target is unchanged. As to the kind of experiment: SEC-MALS; separated 24-mer fraction of the wild type after size exclusion chromatography; Superdex 200 10/300, 20 mM Tris, 50 mM NaCl, pH 7.5.
The target in assay [4] is AgsA:His-DD, hexa-histidine tagged double deletion construct of AgsA (Salmonella enterica serovar typhimurium LT2). As to the kind of experiment: SEC; analytical SEC, Superose 6 10/300, 20 mM Tris, 50 mM NaCl, pH 7.5, calibrated with molecular weight markers; oligomeric state in solution.
Assay [5] addresses AgsA:DD, double deletion AgsA lacking 11 residues at the N-terminus and 9 residues at the C-terminus, tagless (Salmonella enterica serovar typhimurium LT2). The assay is described as above.
Assay [6] has the same target. Put plainly: crystal structure; AgsA:DD; 30% polypropylene glycol 400, 0.1 M NaCl, 20 °C; space group R32, 3 dimers in the asymmetric unit, 7.5 Å.
Assay [7] deals with AgsA:DelC, AgsA lacking 9 residues at the C-terminus, tagless (Salmonella enterica serovar typhimurium LT2). Put plainly: SEC; analytical SEC, Superose 6 10/300, 20 mM Tris, 50 mM NaCl, pH 7.5, calibrated with molecular weight markers; oligomeric state in solution.
Assay [8] shares this target. As to the kind of experiment: crystal structure; AgsA:DelC; 30% pentaerythritol propoxylate (5/4 PO/OH), 0.1 M MES pH 6.0, 30% glycerol, 20 °C; space group I23, a dimer in the asymmetric unit, 4.1 Å.
The target of assay [9] is core ACD fragment of AgsA:His-DD (degraded fragment in the crystal, residues 35-147) (Salmonella enterica serovar typhimurium LT2). As to the kind of experiment: crystal structure; AgsA:His-DD degraded in the drop; 25% pentaerythritol propoxylate (5/4 PO/OH), 0.1 M MES pH 6.0, 20% MPD, 20 °C; space group P4(1)2(1)2, 2.0 Å.

With “Aggregation Suppressing Protein A (AgsA) wild type, tagless (natural protein)”, the stoichiometry N in assay [1] is 18; in assay [2], 18 and 24; in assay [3], 18 and 24.
“AgsA:His-DD, hexa-histidine tagged double deletion construct of AgsA (domain or fragment)” yielded a stoichiometry N in assay [4] of 24.
Regarding “AgsA:DD, double deletion AgsA lacking 11 residues at the N-terminus and 9 residues at the C-terminus, tagless (domain or fragment)”, the stoichiometry N in assay [5] and in assay [6] was 18 in each case.
“AgsA:DelC, AgsA lacking 9 residues at the C-terminus, tagless (domain or fragment)”: the stoichiometry N in [7] and in assay [8] was 24 in each case.
As for “core ACD fragment of AgsA:His-DD (degraded fragment in the crystal, residues 35-147) (domain or fragment)”, the stoichiometry N in assay [9] is 2.
